Measurements from ChEMBL document CHEMBL2073879, “Human monocarboxylate transporter 2 (MCT2) is a high affinity pyruvate transporter” (J Biol Chem, 1998).

Assays:
[1] = substrate: CC(=O)C(=O)O; test: (§1) TP_TRANSPORTER: uptake in Xenopus laevis oocytes; assay type: functional, cell-based; conditions: Oocyte
[2] = substrate: CC(O)C(=O)[O-].[Na+]; test: as §1; assay type: functional, cell-based; conditions: Oocyte

Protein	Km [1] [mM]	Km [2] [mM]
Monocarboxylate transporter 1 (Rattus norvegicus), P53987 (protein) MPPAIGGPVGYTPPDGGWGWAVVVGAFISIGFSYAFPKSITVFFKEIEIIFSATTSEVSWISSIMLAVMYAGGPISSILVNKYGSRPVMIAGGCLSGCGLIAASFCNTVQELYFCIGVIGGLGLAFNLNPALTMIGKYFYKKRPLANGLAMAGSPVFLSTLAPLNQAFFGIFGWRGSFLILGGLLLNCCVAGSLMRPIGPQQGKVEKLKSKESLQEAGKSDANTDLIGGSPKGEKLSVFQTVNKFLDLSLFTHRGFLLYLSGNVVMFFGLFTPLVFLSNYGKSKHFSSEKSAFLLSILAFVDMVARPSMGLAANTRWIRPRVQYFFAASVVANGVCHLLAPLSTTYVGFCIYAGVFGFAFGWLSSVLFETLMDLVGPQRFSSAVGLVTIVECCPVLLGPPLLGRLNDMYGDYKYTYWACGVILIIAGLYLFIGMGINYRLVAKEQKAEEKKRDGKEDETSTDVDEKPKKTMKETQSPAPLQNSSGDPAEEESPV	2.5	6
Monocarboxylate transporter 2 (Homo sapiens), O60669 (protein) MPPMPSAPPVHPPPDGGWGWIVVGAAFISIGFSYAFPKAVTVFFKEIQQIFHTTYSEIAWISSIMLAVMYAGGPVSSVLVNKYGSRPVVIAGGLLCCLGMVLASFSSSVVQLYLTMGFITGLGLAFNLQPALTIIGKYFYRKRPMANGLAMAGSPVFLSSLAPFNQYLFNTFGWKGSFLILGSLLLNACVAGSLMRPLGPNQTTSKSKNKTGKTEDDSSPKKIKTKKSTWEKVNKYLDFSLFKHRGFLIYLSGNVIMFLGFFAPIIFLAPYAKDQGIDEYSAAFLLSVMAFVDMFARPSVGLIANSKYIRPRIQYFFSFAIMFNGVCHLLCPLAQDYTSLVLYAVFFGLGFGSVSSVLFETLMDLVGAPRFSSAVGLVTIVECGPVLLGPPLAGKLVDLTGEYKYMYMSCGAIVVAASVWLLIGNAINYRLLAKERKEENARQKTRESEPLSKSKHSEDVNVKVSNAQSVTSERETNI	0.025	6.5
